Experimental data reported in patent US8211429 (dated 2012).
Substitutions are numbered along the chain they refer to. One block for each binder: values may come before it.

Columns and labels:
murine NRP1 = biological target: T1, murine NRP1 (mouse, UniProt P97333); assay: competition phage ELISA
T1 chain: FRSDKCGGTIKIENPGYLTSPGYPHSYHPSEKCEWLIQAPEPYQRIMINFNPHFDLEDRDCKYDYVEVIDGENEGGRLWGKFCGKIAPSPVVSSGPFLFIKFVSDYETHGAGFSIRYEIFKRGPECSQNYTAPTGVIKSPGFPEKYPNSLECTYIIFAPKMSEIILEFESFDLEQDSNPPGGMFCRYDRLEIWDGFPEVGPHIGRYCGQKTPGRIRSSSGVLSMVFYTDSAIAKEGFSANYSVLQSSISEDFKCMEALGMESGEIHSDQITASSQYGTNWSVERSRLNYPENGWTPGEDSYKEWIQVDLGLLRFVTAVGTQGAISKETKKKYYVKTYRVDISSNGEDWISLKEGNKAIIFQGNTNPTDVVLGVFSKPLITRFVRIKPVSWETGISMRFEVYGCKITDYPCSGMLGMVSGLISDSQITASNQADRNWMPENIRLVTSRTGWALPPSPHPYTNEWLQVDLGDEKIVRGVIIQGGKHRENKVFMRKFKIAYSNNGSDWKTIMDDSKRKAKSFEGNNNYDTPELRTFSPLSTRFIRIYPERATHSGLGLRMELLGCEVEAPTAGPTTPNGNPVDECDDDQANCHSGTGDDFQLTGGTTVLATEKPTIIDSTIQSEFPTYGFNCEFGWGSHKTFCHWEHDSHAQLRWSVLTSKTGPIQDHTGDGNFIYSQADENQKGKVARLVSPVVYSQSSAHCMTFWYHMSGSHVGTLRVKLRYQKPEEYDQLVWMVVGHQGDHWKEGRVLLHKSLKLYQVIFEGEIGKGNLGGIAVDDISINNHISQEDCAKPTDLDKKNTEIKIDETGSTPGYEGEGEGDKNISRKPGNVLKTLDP

human NRP1 = human NRP1 (human, UniProt O14786); assay: competition phage ELISA

B1: YW107.4.58 (antibody, V domains shown)
VH: EVQLVESGGGLVQPGGSLRLSCAASGFTFSSYAMSWVRQAPGKGLEWVSQISPAGGYTNYADSVKGRFTISADTSKNTAYLQMNSLRAEDTAVYYCARELPYYRMSKVMDVWGQGTLVTVSS
VL: DIQMTQSPSSLSASVGDRVTITCRASQYISSYLAWYQQKPGKAPKLLIYGASSRASGVPSRFSGSGSGTDFTLTISSLQPEDFATYYCQQYKSSPRTFGQGTKVEIKR
IC50 (murine NRP1): 3.5 nM
IC50 (human NRP1): 0.73 nM

B2: YW107.4.20 (antibody, V domains shown)
VH: B1 VH
VL: B1 VL with Y28R, I29T, S30H, K92Y, S93G, R96H
IC50 (murine NRP1): 33 nM
IC50 (human NRP1): 0.45 nM

B3: YW107.4.54 (antibody, V domains shown)
VH: B1 VH
VL: B1 VL with Y28P, I29L, S30H, K92Y, S93R, R96L
IC50 (murine NRP1): 2.7 nM
IC50 (human NRP1): 0.84 nM

B6: YW107.4.76b (antibody, V domains shown)
VH: B1 VH
VL: B1 VL with Y28W, I29V, S30H, K92Y, S93G, S94T, R96I
IC50 (murine NRP1): 3.9 nM
IC50 (human NRP1): 0.34 nM

B7: YW107.4.85 (antibody, V domains shown)
VH: B1 VH
VL: B1 VL with R54G, A55E, K92I, S93I, R96I
IC50 (murine NRP1): 4 nM
IC50 (human NRP1): 0.44 nM

B9: YW107.4.42 (antibody, V domains shown)
VH: B1 VH
VL: B1 VL with Y28W, S30H, R54S, K92Y, R96L
IC50 (murine NRP1): 1.2 nM
IC50 (human NRP1): 0.81 nM

B11: YW107.4.59 (antibody, V domains shown)
VH: B1 VH
VL: B1 VL with Y28R, S30H, K92Y, S93I, R96L
IC50 (murine NRP1): 26 nM
IC50 (human NRP1): 1.8 nM

B12: YW107.4.51 (antibody, V domains shown)
VH: B1 VH
VL: B1 VL with Y28R, S53R, A55E, S93L, R96L
IC50 (murine NRP1): 12 nM
IC50 (human NRP1): 2 nM

B13: YW107.4.33b (antibody, V domains shown)
VH: B1 VH
VL: B1 VL with S30H, S53R, K92Y, S93G, S94T, R96H
IC50 (murine NRP1): 7.8 nM
IC50 (human NRP1): 0.58 nM

B14: YW107.4.66 (antibody, V domains shown)
VH: B1 VH
VL: B1 VL with K92I, S93V, R96L
IC50 (murine NRP1): 2.6 nM
IC50 (human NRP1): 0.45 nM

B15: YW107.4.41 (antibody, V domains shown)
VH: B1 VH
VL: B1 VL with Y28W, I29T, S30H, S53R, R54L, A55E, K92F, S93I, R96H
IC50 (murine NRP1): 5.5 nM
IC50 (human NRP1): 0.43 nM

Stronger by IC50 (human NRP1), values ahead:

IC50 (murine NRP1): 3.4 nM
IC50 (human NRP1): 0.1 nM
B4: YW107.4.12 (antibody, V domains shown)
VH: B1 VH
VL: B1 VL with I29T, S30H, K92Y, R96I

IC50 (human NRP1): 0.31 nM
B5: YW107.4.33a (antibody, V domains shown)
VH: B1 VH
VL: B1 VL with S53R, K92I, S93G, R96I

IC50 (murine NRP1): 6 nM
IC50 (human NRP1): 0.24 nM
B8: YW107.4.17 (antibody, V domains shown)
VH: B1 VH
VL: B1 VL with I29T, S30H, K92Y, R96V

IC50 (murine NRP1): 1.7 nM
IC50 (human NRP1): 0.3 nM
B10: YW107.4.53 (antibody, V domains shown)
VH: B1 VH
VL: B1 VL with S53R, A55E, K92L, S93N, R96L

IC50 (murine NRP1): 1.7 nM
IC50 (human NRP1): 0.3 nM
B16: YW107.4.78 (antibody, V domains shown)
VH: B1 VH
VL: B1 VL with A55E, K92L, R96I
